Article PMC8469155
One block for each substance: values may come before it.

How the values were obtained:
L19-TNF^Y119S (human) = experiment: SEC; Superdex 200 Increase 10/300 column, ÄKTA FPLC, protein dialysed into PBS pH 7.4; peak at 12 mL corresponds to the homotrimer
L19-TNF^I97A (human) [1] = experiment: as above
[2] = target: alternatively spliced EDB domain of fibronectin (recombinant EDB protein)
L19-TNF^S147A (human) = experiment: SEC; Superdex 200 Increase 10/300 column, ÄKTA FPLC, protein dialysed into PBS pH 7.4; peak at 12 mL corresponds to the homotrimer
L19-TNF^Q102N (human) = experiment: as above
L19-TNF^WT (human) [3] = experiment: as above
L19-TNF^Y59F (human) = experiment: as above
L19-TNF^I97A (human) [4] = experiment: SPR; BIAcore X100; EDB covalently immobilised on a CM5 chip (1500-2000 RU), L19-TNF protein captured on it through L19-EDB (340 RU); TNFR1 injected for 30 s in a 1:2 dilution series from 1000 nM; PBS pH 7.4; regeneration 10 mM HCl; independent chip for each protein; global fit, 1:1 Langmuir model
L19-TNF^WT (human) [5] = experiment: as above
[6] = target: tumor necrosis factor receptor 1 (TNFR-1) (UniProt P19438); experiment: SPR; conditions: response read at end of injection (~50-55 s), L19-TNF mutein captured on EDB-coated CM5 chip, read off a plot

Substance: L19-TNF^Y119S
stoichiometry N (L19-TNF^Y119S (human)): 3

Substance: L19-TNF^I97A
stoichiometry N (L19-TNF^I97A (human) [1]): 3
EC50 of cytotoxicity on A-375 cells (cell viability, with actinomycin D), 100 nM EDB Coating (M); without EDB coating 2.273 × 10^−9 M [2]: 2.25e-10 M

Substance: L19-TNF^WT
stoichiometry N (L19-TNF^WT (human) [3]): 3

Substance: L19-TNF^Y59F
stoichiometry N (L19-TNF^Y59F (human)): 3

Substance: L19-TNF^WT Q102N
response ([6]; 125 nM TNFR1): 28 RU
response ([6]; 500 nM TNFR1): 45 RU
response ([6]; 1000 nM TNFR1): 45 RU

Continued, values first:

stoichiometry N (L19-TNF^S147A (human)): 3
Substance: L19-TNF^S147A

stoichiometry N (L19-TNF^Q102N (human)): 3
Substance: L19-TNF^Q102N

fold faster dissociation rate against L19-TNF^WT (L19-TNF^I97A (human) [4]): 50 fold
Kd (L19-TNF^WT (human) [5]): 10 nM
Substance: tumor necrosis factor receptor 1 (TNFR-1) (from UniProt P19438 30-455)
